Results: US20230391856A1 (ICAHN SCHOOL OF MEDICINE AT MOUNT SINAI, published 2023)
Positions count from the first letter of the chain named.

B1: 8A1 (antibody, V domains shown)
VH: EVQLQESGGGLVQPGGSLKLSCAASGFTFSSYTMSWVRQTPEKRLEWVAYISNGGGSISYPDTVKGRFTISRDNAKNTLYLHMSSLKSEDTAMYHCAREGLRPGDRDRYYAMDYWGQGTSVTVSS
VL: DIVITQSPALMAAFPGDRVTITCSVSSSVSSSNLHWYRQKSETSPKPWIYGTSTLASGVPVRFSGSGSGTSYSLTISSMEAEDAATYYCQQWSSYPLTFGAGTKLELKR
B2: SARS2-10D6_f3 (antibody, V domains shown)
VH: EVQLVETGGGLIQPGGSLRLSCAASGITVSSNYMNWVRQAPGKGLEWVSVIYSGGSTYYADSVKGRFTISRDNSKNTLYLQMNSLRAEDTAVYYCARDLELAGAFDIWGQGTMVTVSL
VL: DIQLTQSPSFLSASVGDRVTITCRASQGISSYLAWYQQKPGKAPKVLIYAASTLQSGVPSRFSGSGSGTEFTLTISSLQPEDFATYYCQQLNSYPPSTFGQGTKLEIK
notes: also called antibody number 11; family A
B3: SARS2-19C4_f3 (antibody, V domains shown)
VH: B2 VH with Y58F, L101V, A104G
VL: B2 VL with E70K, Y94F
notes: also called antibody number 20; family A
B4: SARS2-11D5_f3 (antibody, V domains shown)
VH: B2 VH with N35S, E100A, L101V
VL: B2 VL
notes: also called antibody number 12
B5: SARS2-1G9_f3 (antibody, V domains shown)
VH: QVQLVQSGAEVKKPGASVKVSCKASGYTFTSYDIIWVRQATGQGLEWMGWMSPNSGNTGYAQKFQGRVTMTRNTSISTAYMELSSLRSEDTAVYYCARFGYGSGALDYYYYGLDVWGQGTTVTVSS
VL: not shown
notes: also called antibody number 5
B6: SARS2-16C12_f3 (antibody, V domains shown)
VH: B5 VH
VL: not shown
notes: also called antibody number 16; family B
B7: SARS2-16C5_f3 (antibody, V domains shown)
VH: B5 VH with S77G, Y95F
VL: EIVLTQSPGTLSLSPGERATLSCRASQSVRSSHLAWYQQKPGQAPRLLIYGASSRATGIPDRFSGSGSGTDFTLTISRLEPEDFAVYYCQQYNNSPITFGQGTRLEIK
notes: also called antibody number 15; family B
B8: SARS2-8H4_f3 (antibody, V domains shown)
VH: B5 VH with I35T
VL: B7 VL with Y92F, N93G, N94S
notes: also called antibody number 9
B9: SARS2-9C6_f3 (antibody, V domains shown)
VH: B5 VH with I35T, N54K
VL: B7 VL with Q38R, S66R, N94S
notes: also called antibody number 10
B10: SARS2-1C12_f3 (antibody, V domains shown)
VH: B5 VH with I35T, A61T
VL: B7 VL
notes: also called antibody number 1
B11: SARS2-1D5_f3 (antibody, V domains shown)
VH: B5 VH with I35T, S84N
VL: B7 VL with E17D, T73S, Y92F, N93G, N94S
notes: also called antibody number 2
B12: SARS2-18E7_f3 (antibody, V domains shown)
VH: B5 VH with K19T, K63R
VL: not shown
notes: also called antibody number 19
B13: SARS2-7C10_f3 (antibody, V domains shown)
VH: B5 VH with I35T, S84R
VL: B7 VL with Y37S, Y92F, N93G, N94S
notes: also called antibody number 8
B14: SARS2-17A8_f3 (antibody, V domains shown)
VH: B5 VH with R72K
VL: not shown
notes: also called antibody number 17
B15: SARS2-5D7_f3 (antibody, V domains shown)
VH: B5 VH with A16T, A24T, N54K, S55N, K63R
VL: B7 VL with Q38R, S66R, N94I
notes: also called antibody number 6
B16: SARS2-1E2_f3 (antibody, V domains shown)
VH: B5 VH with I35T
VL: B7 VL with L34F, Y87C, N93G, N94S
notes: also called antibody number 4
B17: SARS2-1D10_f3 (antibody, V domains shown)
VH: B5 VH with T41S, S77N
VL: not shown
notes: also called antibody number 3
B18: 11G2_f3 (antibody, V domains shown)
VH: B5 VH with I35T, T69S
VL: B7 VL with S31N, Y92F, N93G, N94S
notes: also called SARS2-11G2_S; antibody number 13
B19: SARS2-5H12_f3 (antibody, V domains shown)
VH: B5 VH with A16T, A24T, T30P, N54K, S55N, Y60F, K63R, D107G
VL: B7 VL with Q38R, S66R, N94F
notes: also called antibody number 7
B20: SARS2-17F2_f3 (antibody, V domains shown)
VH: B5 VH with K13R, I35T, N54D, K63R
VL: B7 VL with N94S
notes: also called antibody number 18

Columns and labels:
[1] = biological target: SARS-CoV-2 spike protein (full length, wild type) (SARS-CoV-2, UniProt P0DTC2 14-1273); assay: cell-based or functional assay
[2] = biological target: SARS-CoV-2 spike receptor binding domain (RBD) (SARS-CoV-2, UniProt P0DTC2 319-541); assay: RBD/ACE2 competition; RBD binding to ACE2 on HEK-293 cells
[3] = biological target: T1, SARS-CoV-2 spike protein (full length, wild type) (SARS-CoV-2, UniProt P0DTC2 14-1273); assay: cell-based or functional assay; remark: listed apart in the source
[4] = biological target: T2, SARS-CoV-2 spike receptor binding domain (RBD) (SARS-CoV-2, UniProt P0DTC2 319-541); assay: RBD/ACE2 competition; RBD binding to ACE2 on HEK-293 cells
T2 construct: also called SARS-CoV RBD

[5] = biological target: T2, SARS-CoV-2 spike receptor binding …; assay: as above; remark: listed apart in the source
[6] = biological target: T1, SARS-CoV-2 spike protein (full length, …); assay: cell-based or functional assay; remark: listed apart in the source

Binder | EC50 (pM) [1] [pM] | ACE2 Inhibition (%) [2] [%] | EC50 (pM) [3] [pM] | ACE2 Inhibition (%) [4] [%] | ACE2 binding [% inhibition] [5] [%] | Inhibition: EC50 [pM] [6] [pM]
B1 | 96 | 95 |  |  |  | 
B2 |  |  | 1020 | 81 | 81 | 
B3 |  |  | 492 | 89 | 89 | 
B4 |  |  | 440 | 66 | 66 | 
B5 |  |  | 145 | 96 | 96 | 
B6 |  |  | 59 | 87 | 87 | 
B7 |  |  | 107 | 94 | 94 | 
B8 |  |  | 100 | 93 | 93 | 
B9 |  |  | 105 | 85 | 85 | 
B10 |  |  | 75 | 88 | 88 | 
B11 |  |  | 49 | 94 | 94 | 94
B12 |  |  | 62 | 82 | 82 | 
B13 |  |  | 152 | 85 | 85 | 
B14 |  |  | 59 | 98 | 98 | 
B15 |  |  | 284 | 97 | 97 | 
B16 |  |  | 218 | 86 | 86 | 
B17 |  |  | 47 | 95 | 95 | 
B18 |  |  | 74 | 90 | 90 | 109
B19 |  |  | 377 | 100 | 100 | 
B20 |  |  | 151 | 65 | 65 | 
